The text below walks through data of paper PMC2064808.

The test addresses GST-β3 integrin cytodomain (human) (UniProt P05106). Put plainly: ELISA. In general terms: ELISA stands for enzyme-linked immunosorbent assay.
Sequence of UniProt P05106 (P05106 27-788): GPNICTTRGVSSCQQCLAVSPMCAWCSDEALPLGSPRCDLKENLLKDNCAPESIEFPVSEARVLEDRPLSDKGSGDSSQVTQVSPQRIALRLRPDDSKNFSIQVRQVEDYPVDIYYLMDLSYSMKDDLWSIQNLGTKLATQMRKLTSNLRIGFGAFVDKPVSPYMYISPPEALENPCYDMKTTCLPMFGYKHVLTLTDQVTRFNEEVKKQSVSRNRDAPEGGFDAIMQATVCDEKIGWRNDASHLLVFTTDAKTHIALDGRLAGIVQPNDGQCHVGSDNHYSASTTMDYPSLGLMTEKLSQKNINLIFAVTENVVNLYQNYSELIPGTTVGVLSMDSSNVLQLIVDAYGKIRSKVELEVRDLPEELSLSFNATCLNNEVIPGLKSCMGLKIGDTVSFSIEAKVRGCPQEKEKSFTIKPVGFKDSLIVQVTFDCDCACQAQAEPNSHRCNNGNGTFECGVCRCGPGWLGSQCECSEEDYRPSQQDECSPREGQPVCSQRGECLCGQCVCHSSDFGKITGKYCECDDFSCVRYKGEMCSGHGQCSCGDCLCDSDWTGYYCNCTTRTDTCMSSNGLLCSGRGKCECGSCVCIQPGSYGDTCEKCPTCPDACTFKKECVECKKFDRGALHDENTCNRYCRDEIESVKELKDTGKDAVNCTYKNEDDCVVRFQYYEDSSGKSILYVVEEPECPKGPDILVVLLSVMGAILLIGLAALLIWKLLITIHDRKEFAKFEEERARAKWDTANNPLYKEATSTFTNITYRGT

B1: His-PKD1 treated with alkaline phosphatase (enzyme)
chain: MSVPPLLRPPSPLLPAAAAVAAAAAALVPGSGPAPFPAPGAAPAGGISFHLQIGLSREPVLLLQDSSGDYSLAHVREMACSIVDQKFPECGFYGLYDKILLFRHDPASDNILQLVKIASDIQEGDLIEVVLSASATFEDFQIRPHALFVHSYRAPAFCDHCGEMLWGLVRQGLKCEGCGLNYHKRCAFKIPNNCSGVRRRRLSNVSLTGLGTVRTASAEFSTSVPDEPLLSPVSPGFEQKSPSESFIGREKRSNSQSYIGRPIQLDKLLMSKVKVPHTFVIHSYTRPTVCQFCKKLLKGLFRQGLQCKDCRFNCHKRCAPKVPNNCLGEVTINGELLSPGAESDVVMEEGSDDNDSERNSGLMDDMDEAMVQDTEMALAEGQSGGAEMQDPDADQEDSNRTISPSTSNNIPLMRVVQSVKHTKRRSSTVMKEGWMVHYTSKDTLRKRHYWRLDSKCITLFQNDTGSRYYKEIPLSEILCLEPAKPSALTPVGATPHCFEITTANVVYYVGENVVNPSSSPPNNSVLPSGIGPDVARMWEVAIQHALMPVIPKGSSVGSGSNSHKDISVSISVSNCQIQENVDISTVYQIFPDEVLGSGQFGIVYGGKHRKTGRDVAIKIIDKLRFPTKQESQLRNEVAILQNLHHPGVVNLECMFETPERVFVVMEKLHGDMLEMILSSEKGRLPEHITKFLITQILVALRHLHFKNIVHCDLKPENVLLASADPFPQVKLCDFGFARIIGEKSFRRSVVGTPAYLAPEVLRNKGYNRSLDMWSVGVIIYVSLSGTFPFNEDEDIHDQIQNAAFMYPPNPWKEISHEAIDLINNLLQVKMRKRYSVDKTLSHPWLQDYQTWLDLRELECRIGERYITHESDDSRWEQYAGEQGLQYPAHLISLSASHSDSPEAEEREMKALSERVSIL
modifications: ~80% dephosphorylation of the kinase by alkaline phosphatase
Regarding B1, the fold reduction of affinity against untreated PKD1 worked out at 5 fold.
